In PMC8383480:

Target: peptide probe (designed thiol-sensitive probe mimicking the substrate of the main protease)
Assay: SPR

Substance: main protease of SARS-Cov-2 (from UniProt P0DTD1) (enzyme)
- koff: 0.182 s⁻¹
- kon: 1.03e+08 M⁻¹ s⁻¹
